Test results taken from patent US20110318339A1 (FABRUS, published 2011).
Substitutions are numbered along the chain they refer to. Numbers in names are those of the source. Values belong to the binder of their own block, whether it stands above or below them.

Tests used:
[1] = target: T1, Recombinant Human DLL4 (Cat# 1506-D4/CF, R&D Systems) (human, UniProt Q9NR61 27-529); assay: ELISA, DLL4 coated, estimated from dose-dependent binding
T1 construct: Bought protein; also called rHuman DLL4; hDLL4
Method: (§1) The plate was blocked by adding 1% BSA in Tris-buffered Saline Tween (TBST) and incubating for 1 hour at room temperature followed by washing 2 times with 150 μl TBST. A Fab antibody was serially diluted in 1% BSA in PBS. A 50 μl aliquot of each serial dilution was added, in triplicate, to each well and the plate was incubated for 1 hour at room temperature followed by washing 2 times with TBST. 50 μl of either goat anti-human kappa HRP conjugated secondary antibody (Cat # A7164-1 mL, Sigma-Aldrich) or goat anti-human lambda HRP conjugated secondary antibody (Cat # L1645-1 ml, Sigma-Aldrich), diluted 1:1000 in 1% BSA in PBS, was added to each well and the plate was incubated for 30 minutes at room temperature followed by washing 3 times with 200 μl TBST. Finally, 50 μl TMB one-component reagent (Cat # TMBW-1000-01, BioFax) was added and allowed to develop for 2 minutes at room temperature. The reaction was immediately halted by the addition of 50 μl 0.5M H₂SO₄ and the absorbance at 450 nm was measured using an ELISA plate reader.

[2] = target: T1, Recombinant Human DLL4 (Cat# …); assay: ELISA, DLL4 coated
[3] = target: T2, recombinant human DLL4 (Cat# 1506-D4/CF, R&D Systems) (human, UniProt Q9NR61 27-529); assay: ELISA, DLL4 coated, Fab 0.63 nM
T2 construct: Bought protein; also called hDLL4; rHuman DLL4
Method: as §1

[4] = target: T2, recombinant human DLL4 (Cat# …); assay: ELISA, DLL4 coated, Fab 1.3 nM
Method: as §1

[5] = target: T2, recombinant human DLL4 (Cat# …); assay: ELISA, DLL4 coated, Fab 5 nM
Method: as §1

[6] = target: T2, recombinant human DLL4 (Cat# …); assay: ELISA, DLL4 coated, Fab 20 nM
Method: as §1

[7] = target: T2, recombinant human DLL4 (Cat# …); assay: ELISA, DLL4 coated, Fab 0.31 nM
Method: as §1

[8] = target: T2, recombinant human DLL4 (Cat# …); assay: ELISA, DLL4 coated, Fab 2.5 nM
Method: as §1

[9] = target: T2, recombinant human DLL4 (Cat# …); assay: ELISA, DLL4 coated, Fab 10 nM
Method: as §1

[10] = target: T2, recombinant human DLL4 (Cat# …); assay: ELISA, DLL4 coated, Fab 0.16 nM
Method: as §1

[11] = target: T2, recombinant human DLL4 (Cat# …); assay: ELISA, DLL4 coated, Fab 12.5 nM
Method: as §1

[12] = target: T2, recombinant human DLL4 (Cat# …); assay: ELISA, DLL4 coated, Fab 100 nM
Method: as §1

[13] = target: T2, recombinant human DLL4 (Cat# …); assay: ELISA, DLL4 coated, Fab 3.125 nM
Method: as §1

[14] = target: T2, recombinant human DLL4 (Cat# …); assay: ELISA, DLL4 coated, Fab 50 nM
Method: as §1

[15] = target: T2, recombinant human DLL4 (Cat# …); assay: ELISA, DLL4 coated, Fab 25 nM
Method: as §1

[16] = target: T2, recombinant human DLL4 (Cat# …); assay: ELISA, DLL4 coated, Fab 6.25 nM
Method: as §1

[17] = target: T2, recombinant human DLL4 (Cat# …); assay: ELISA, DLL4 coated, Fab 50 nM; remark: listed apart in the source
Method: as §1

[18] = target: T2, recombinant human DLL4 (Cat# …); assay: ELISA, DLL4 coated, Fab 100 nM; remark: listed apart in the source
[19] = target: T2, recombinant human DLL4 (Cat# …); assay: ELISA, DLL4 coated, Fab 75 nM

- Kd [1]: 1 to 10 nM
B1: Fab H:APFF ELTH & L6_IGKJ1*01 (Fab, V domains shown)
VH: QVQLVQSGAEVKKPGASVKVSCKASGYTFTSYYMHWVRQAPGQGLEWMGIELPTGHSTSYAQKFQGRVTMTRDTSTSTVYMELSSLRSEDTAVYYCAREEYAPFSAEYFQFWGQGTLVTVSS
VL: not shown
notes: Fab, kappa light chain; also called H:APPF ELTH; H:APFF ELTH & L:wt

- fold increased binding affinity against the antibody mutants with heavy chain H:APFF ALTH [2]: ~10 fold
B2: Fab H:APFF VLTH & L:NDH LG (Fab, V domains shown)
VH: B1 VH with E51V
VL: EIVLTQSPATLSLSPGERATLSCRASQNVDHYLAWYQQKPGQAPRLLIYDALNRGTGIPARFSGSGSGTDFTLTISSLEPEDFAVYYCQQRSNWPPWTFGQGTKVEIKR
notes: Fab, kappa light chain

- ELISA absorbance at 450 nm [3]: 0.419 A450
- ELISA absorbance at 450 nm [4]: 0.143 A450
- ELISA absorbance at 450 nm [5]: 1.75 A450
- ELISA absorbance at 450 nm [6]: 1.63 A450
- ELISA absorbance at 450 nm [7]: 1.63 A450
- ELISA absorbance at 450 nm [8]: 1.17 A450
- ELISA absorbance at 450 nm [9]: 1.36 A450
- ELISA absorbance at 450 nm [10]: 1.36 A450
B3: Fab VH1-46_IGHD6-6*01_IGHJ1*01 S102A/S103P/S104F/H111F I51N/N52L/S54T/G56H & L6_IGKJ1*01 (Fab, V domains shown)
VH: B1 VH with E51N
VL: not shown
notes: Fab made in E. coli: VH on CH1 with His6 and Flag tags (Plasmid A), VL on kappa CL (Plasmid C); also called H: APFF NLTH & L: wt

- fold increased binding affinity against the antibody mutants with heavy chain H:APFF ALTH [2]: ~10 fold
B4: Fab H:APFF LTH & L:NDH LS (Fab, V domains shown)
VH: B1 VH with E51I
VL: B2 VL with G55S
notes: Fab, kappa light chain

- ELISA absorbance at 450 nm [3]: 0.785 A450
- ELISA absorbance at 450 nm [4]: 0.252 A450
- ELISA absorbance at 450 nm [5]: 2.2 A450
- ELISA absorbance at 450 nm [6]: 2.05 A450
- ELISA absorbance at 450 nm [7]: 2.05 A450
- ELISA absorbance at 450 nm [8]: 1.66 A450
- ELISA absorbance at 450 nm [9]: 1.85 A450
- ELISA absorbance at 450 nm [10]: 1.85 A450
B5: Fab VH1-46_IGHD6-6*01_IGHJ1*01 S102A/S103P/S104F/H111F I51V/N52L/S54T/G56H & L6_IGKJ1*01 (Fab, V domains shown)
VH: B1 VH with E51V
VL: not shown
notes: Fab made in E. coli: VH on CH1 with His6 and Flag tags (Plasmid A), VL on kappa CL (Plasmid C); also called H: APFF VLTH & L: wt

- ELISA absorbance at 450 nm [11]: 0.215 A450
- ELISA absorbance at 450 nm [12]: 0.791 A450
- ELISA absorbance at 450 nm [13]: 0.095 A450
- ELISA absorbance at 450 nm [14]: 0.546 A450
- ELISA absorbance at 450 nm [15]: 0.335 A450
- ELISA absorbance at 450 nm [16]: 0.142 A450
B6: Fab VH1-46_IGHD6-6*01_IGHJ1*01 S102A/S103P/S104F/H111F & L6_IGKJ1*01 S28N/S30D/S31H S52L (Fab, V domains shown)
VH: B1 VH with E51I, L52N, T54S, H56G
VL: B2 VL with G55A
notes: Fab made in E. coli: VH on CH1 with His6 and Flag tags (Plasmid A), VL on kappa CL (Plasmid C); also called H: APFF & L: NDH S52L

- Kd [1]: 1 to 10 nM
B7: Fab H:APFF VLTH & L6_IGKJ1*01 (Fab, V domains shown)
VH: B1 VH with E51V
VL: not shown
notes: Fab, kappa light chain; also called H:APPF VLTH; H:APFF VLTH & L:wt

- ELISA absorbance at 450 nm [17]: 0.06 A450
- ELISA absorbance at 450 nm [18]: 0.072 A450
- ELISA absorbance at 450 nm [19]: 0.072 A450
B8: Fab VH1-46_IGHD6-6*01_IGHJ1*01 S102A/S103P/S104F/H111F & L6_IGKJ1*01 (Fab, V domains shown)
VH: B1 VH with E51I, L52N, T54S, H56G
VL: not shown
notes: Fab made in E. coli: VH on CH1 with His6 and Flag tags (Plasmid A), VL on kappa CL (Plasmid C); also called H: APFF & L: wt

- ELISA absorbance at 450 nm [3]: 0.115 A450
- ELISA absorbance at 450 nm [4]: 0.055 A450
- ELISA absorbance at 450 nm [5]: 0.724 A450
- ELISA absorbance at 450 nm [6]: 0.648 A450
- ELISA absorbance at 450 nm [7]: 0.648 A450
- ELISA absorbance at 450 nm [8]: 0.358 A450
- ELISA absorbance at 450 nm [9]: 0.506 A450
- ELISA absorbance at 450 nm [10]: 0.506 A450
B9: Fab VH1-46_IGHD6-6*01_IGHJ1*01 S102A/S103P/S104F/H111F I51T/N52V & L6_IGKJ1*01 (Fab, V domains shown)
VH: B1 VH with E51T, L52V, T54S, H56G
VL: not shown
notes: Fab made in E. coli: VH on CH1 with His6 and Flag tags (Plasmid A), VL on kappa CL (Plasmid C); also called H: APFF TV & L: wt; APFF I51T/N52V

- ELISA absorbance at 450 nm [11]: 0.258 A450
- ELISA absorbance at 450 nm [12]: 0.858 A450
- ELISA absorbance at 450 nm [13]: 0.108 A450
- ELISA absorbance at 450 nm [14]: 0.588 A450
- ELISA absorbance at 450 nm [15]: 0.407 A450
- ELISA absorbance at 450 nm [16]: 0.154 A450
B10: Fab VH1-46_IGHD6-6*01_IGHJ1*01 S102A/S103P/S104F/H111F & L6_IGKJ1*01 S28N/S30D/S31H A55S (Fab, V domains shown)
VH: B1 VH with E51I, L52N, T54S, H56G
VL: B2 VL with L52S, G55S
notes: Fab made in E. coli: VH on CH1 with His6 and Flag tags (Plasmid A), VL on kappa CL (Plasmid C); also called H: APFF & L: NDH A55S
